Experimental findings from US20180155451A1 (published 2018) are described below.

The labels stand for the following.
B1: GpH7-A5/GpH7-B3 variant A330_05P/GpL16-k0 (antibody, human IgG1, kappa)
heavy 1: not shown
heavy 2: not shown
light: DIVMTQSPLSLPVTPGEPASISCQASESLVHSNRNTYLHWYLQKPGQSPQLLIYKVSNRFSGVPDRFSGSGSGTDFTLKISRVEAEDVGVYYCSQNTHVPPTFGQGTKVEIERTVAAPSVFIFPPSDEQLKSGTASVVCLLNNFYPREAKVQWKVDNALQSGNSQESVTEQDSKDSTYSLSSTLTLSKADYEKHKVYACEVTHQGLSSPVTKSFNRGEC
notes: also called He Ab A330_05P
B2: GpH7-A5/GpH7-B3 variant E333_09D/GpL16-k0 (antibody, human IgG1, kappa)
heavy 1: not shown
heavy 2: not shown
light: DIVMTQSPLSLPVTPGEPASISCQASESLVHSNRNTYLHWYLQKPGQSPQLLIYKVSNRFSGVPDRFSGSGSGTDFTLKISRVEAEDVGVYYCSQNTHVPPTFGQGTKVEIERTVAAPSVFIFPPSDEQLKSGTASVVCLLNNFYPREAKVQWKVDNALQSGNSQESVTEQDSKDSTYSLSSTLTLSKADYEKHKVYACEVTHQGLSSPVTKSFNRGEC
notes: also called He Ab E333_09D
B3: GpH7-A5/GpH7-B3 variant G236_15Y/GpL16-k0 (antibody, human IgG1, kappa)
heavy 1: not shown
heavy 2: not shown
light: DIVMTQSPLSLPVTPGEPASISCQASESLVHSNRNTYLHWYLQKPGQSPQLLIYKVSNRFSGVPDRFSGSGSGTDFTLKISRVEAEDVGVYYCSQNTHVPPTFGQGTKVEIERTVAAPSVFIFPPSDEQLKSGTASVVCLLNNFYPREAKVQWKVDNALQSGNSQESVTEQDSKDSTYSLSSTLTLSKADYEKHKVYACEVTHQGLSSPVTKSFNRGEC
notes: also called He Ab G236_15Y
B4: GpH7-A5/GpH7-B3 variant E333_03V/GpL16-k0 (antibody, human IgG1, kappa)
heavy 1: not shown
heavy 2: not shown
light: DIVMTQSPLSLPVTPGEPASISCQASESLVHSNRNTYLHWYLQKPGQSPQLLIYKVSNRFSGVPDRFSGSGSGTDFTLKISRVEAEDVGVYYCSQNTHVPPTFGQGTKVEIERTVAAPSVFIFPPSDEQLKSGTASVVCLLNNFYPREAKVQWKVDNALQSGNSQESVTEQDSKDSTYSLSSTLTLSKADYEKHKVYACEVTHQGLSSPVTKSFNRGEC
notes: also called He Ab E333_03V
B5: GpH7-A5/GpH7-B3 variant E333_04F/GpL16-k0 (antibody, human IgG1, kappa)
heavy 1: not shown
heavy 2: not shown
light: DIVMTQSPLSLPVTPGEPASISCQASESLVHSNRNTYLHWYLQKPGQSPQLLIYKVSNRFSGVPDRFSGSGSGTDFTLKISRVEAEDVGVYYCSQNTHVPPTFGQGTKVEIERTVAAPSVFIFPPSDEQLKSGTASVVCLLNNFYPREAKVQWKVDNALQSGNSQESVTEQDSKDSTYSLSSTLTLSKADYEKHKVYACEVTHQGLSSPVTKSFNRGEC
notes: also called He Ab E333_04F
B6: GpH7-A5/GpH7-B3 variant H268_02A/GpL16-k0 (antibody, human IgG1, kappa)
heavy 1: not shown
heavy 2: not shown
light: DIVMTQSPLSLPVTPGEPASISCQASESLVHSNRNTYLHWYLQKPGQSPQLLIYKVSNRFSGVPDRFSGSGSGTDFTLKISRVEAEDVGVYYCSQNTHVPPTFGQGTKVEIERTVAAPSVFIFPPSDEQLKSGTASVVCLLNNFYPREAKVQWKVDNALQSGNSQESVTEQDSKDSTYSLSSTLTLSKADYEKHKVYACEVTHQGLSSPVTKSFNRGEC
notes: also called He Ab H268_02A
B7: GpH7-A5/GpH7-B3 variant H268_18N/GpL16-k0 (antibody, human IgG1, kappa)
heavy 1: not shown
heavy 2: not shown
light: DIVMTQSPLSLPVTPGEPASISCQASESLVHSNRNTYLHWYLQKPGQSPQLLIYKVSNRFSGVPDRFSGSGSGTDFTLKISRVEAEDVGVYYCSQNTHVPPTFGQGTKVEIERTVAAPSVFIFPPSDEQLKSGTASVVCLLNNFYPREAKVQWKVDNALQSGNSQESVTEQDSKDSTYSLSSTLTLSKADYEKHKVYACEVTHQGLSSPVTKSFNRGEC
notes: also called He Ab H268_18N
B8: GpH7-A5/GpH7-B3 variant E333_20W/GpL16-k0 (antibody, human IgG1, kappa)
heavy 1: not shown
heavy 2: not shown
light: DIVMTQSPLSLPVTPGEPASISCQASESLVHSNRNTYLHWYLQKPGQSPQLLIYKVSNRFSGVPDRFSGSGSGTDFTLKISRVEAEDVGVYYCSQNTHVPPTFGQGTKVEIERTVAAPSVFIFPPSDEQLKSGTASVVCLLNNFYPREAKVQWKVDNALQSGNSQESVTEQDSKDSTYSLSSTLTLSKADYEKHKVYACEVTHQGLSSPVTKSFNRGEC
notes: also called He Ab E333_20W
B9: GpH7-A5/GpH7-B3 variant E333_13S/GpL16-k0 (antibody, human IgG1, kappa)
heavy 1: not shown
heavy 2: not shown
light: DIVMTQSPLSLPVTPGEPASISCQASESLVHSNRNTYLHWYLQKPGQSPQLLIYKVSNRFSGVPDRFSGSGSGTDFTLKISRVEAEDVGVYYCSQNTHVPPTFGQGTKVEIERTVAAPSVFIFPPSDEQLKSGTASVVCLLNNFYPREAKVQWKVDNALQSGNSQESVTEQDSKDSTYSLSSTLTLSKADYEKHKVYACEVTHQGLSSPVTKSFNRGEC
notes: also called He Ab E333_13S
B10: GpH7-A5/GpH7-B3 variant A330_07I/GpL16-k0 (antibody, human IgG1, kappa)
heavy 1: not shown
heavy 2: not shown
light: DIVMTQSPLSLPVTPGEPASISCQASESLVHSNRNTYLHWYLQKPGQSPQLLIYKVSNRFSGVPDRFSGSGSGTDFTLKISRVEAEDVGVYYCSQNTHVPPTFGQGTKVEIERTVAAPSVFIFPPSDEQLKSGTASVVCLLNNFYPREAKVQWKVDNALQSGNSQESVTEQDSKDSTYSLSSTLTLSKADYEKHKVYACEVTHQGLSSPVTKSFNRGEC
notes: also called He Ab A330_07I
B11: GpH7-A5/GpH7-B3 variant E333_02A/GpL16-k0 (antibody, human IgG1, kappa)
heavy 1: not shown
heavy 2: not shown
light: DIVMTQSPLSLPVTPGEPASISCQASESLVHSNRNTYLHWYLQKPGQSPQLLIYKVSNRFSGVPDRFSGSGSGTDFTLKISRVEAEDVGVYYCSQNTHVPPTFGQGTKVEIERTVAAPSVFIFPPSDEQLKSGTASVVCLLNNFYPREAKVQWKVDNALQSGNSQESVTEQDSKDSTYSLSSTLTLSKADYEKHKVYACEVTHQGLSSPVTKSFNRGEC
notes: also called He Ab E333_02A
B12: GpH7-B3 variant Y296_14T/GpL16-k0 (antibody, human IgG1, kappa)
heavy: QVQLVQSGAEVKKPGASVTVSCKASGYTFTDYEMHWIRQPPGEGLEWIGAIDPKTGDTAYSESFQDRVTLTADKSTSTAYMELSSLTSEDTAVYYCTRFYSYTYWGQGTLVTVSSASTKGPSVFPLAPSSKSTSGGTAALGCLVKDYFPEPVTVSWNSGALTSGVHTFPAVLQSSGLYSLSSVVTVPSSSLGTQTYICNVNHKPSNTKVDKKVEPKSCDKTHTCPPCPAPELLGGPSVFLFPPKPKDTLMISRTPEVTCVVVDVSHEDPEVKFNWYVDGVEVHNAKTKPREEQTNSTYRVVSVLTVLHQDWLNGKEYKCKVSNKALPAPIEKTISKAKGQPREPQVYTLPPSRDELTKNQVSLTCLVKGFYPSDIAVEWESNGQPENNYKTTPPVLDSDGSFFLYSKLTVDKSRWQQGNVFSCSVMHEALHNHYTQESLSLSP
light: DIVMTQSPLSLPVTPGEPASISCQASESLVHSNRNTYLHWYLQKPGQSPQLLIYKVSNRFSGVPDRFSGSGSGTDFTLKISRVEAEDVGVYYCSQNTHVPPTFGQGTKVEIERTVAAPSVFIFPPSDEQLKSGTASVVCLLNNFYPREAKVQWKVDNALQSGNSQESVTEQDSKDSTYSLSSTLTLSKADYEKHKVYACEVTHQGLSSPVTKSFNRGEC
notes: homodimerized antibody, mutation in both H chains; also called Ho Ab
B13: GpH7-B3 variant Y296_19Q/GpL16-k0 (antibody, human IgG1, kappa)
heavy: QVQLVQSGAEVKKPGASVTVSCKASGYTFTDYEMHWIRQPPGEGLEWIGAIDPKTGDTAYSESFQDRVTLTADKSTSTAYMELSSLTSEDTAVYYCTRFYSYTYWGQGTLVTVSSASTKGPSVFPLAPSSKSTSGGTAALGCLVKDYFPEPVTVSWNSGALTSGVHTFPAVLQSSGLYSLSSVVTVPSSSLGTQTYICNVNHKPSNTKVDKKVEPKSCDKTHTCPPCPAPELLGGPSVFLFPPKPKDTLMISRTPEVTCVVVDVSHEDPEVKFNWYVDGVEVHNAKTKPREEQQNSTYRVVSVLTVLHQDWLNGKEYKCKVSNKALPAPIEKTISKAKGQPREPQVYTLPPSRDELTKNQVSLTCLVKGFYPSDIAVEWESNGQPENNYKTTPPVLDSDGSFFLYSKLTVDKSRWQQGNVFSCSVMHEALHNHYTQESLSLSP
light: DIVMTQSPLSLPVTPGEPASISCQASESLVHSNRNTYLHWYLQKPGQSPQLLIYKVSNRFSGVPDRFSGSGSGTDFTLKISRVEAEDVGVYYCSQNTHVPPTFGQGTKVEIERTVAAPSVFIFPPSDEQLKSGTASVVCLLNNFYPREAKVQWKVDNALQSGNSQESVTEQDSKDSTYSLSSTLTLSKADYEKHKVYACEVTHQGLSSPVTKSFNRGEC
notes: as for B12
B14: GpH7-B3 variant Y300_18N/GpL16-k0 (antibody, human IgG1, kappa)
heavy: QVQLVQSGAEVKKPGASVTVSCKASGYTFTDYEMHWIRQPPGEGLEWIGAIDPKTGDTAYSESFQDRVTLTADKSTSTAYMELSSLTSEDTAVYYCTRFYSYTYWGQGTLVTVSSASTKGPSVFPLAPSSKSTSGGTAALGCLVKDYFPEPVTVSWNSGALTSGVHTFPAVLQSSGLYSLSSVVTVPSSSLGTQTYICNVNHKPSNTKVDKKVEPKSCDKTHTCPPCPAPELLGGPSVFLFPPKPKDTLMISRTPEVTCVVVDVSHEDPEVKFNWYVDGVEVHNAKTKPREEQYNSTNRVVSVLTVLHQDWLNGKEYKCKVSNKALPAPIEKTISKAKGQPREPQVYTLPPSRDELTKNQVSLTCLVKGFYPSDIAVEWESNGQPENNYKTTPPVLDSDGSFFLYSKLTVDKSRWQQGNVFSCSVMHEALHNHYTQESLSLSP
light: DIVMTQSPLSLPVTPGEPASISCQASESLVHSNRNTYLHWYLQKPGQSPQLLIYKVSNRFSGVPDRFSGSGSGTDFTLKISRVEAEDVGVYYCSQNTHVPPTFGQGTKVEIERTVAAPSVFIFPPSDEQLKSGTASVVCLLNNFYPREAKVQWKVDNALQSGNSQESVTEQDSKDSTYSLSSTLTLSKADYEKHKVYACEVTHQGLSSPVTKSFNRGEC
notes: as for B12
B15: GpH7-B3 variant Y296_10E/GpL16-k0 (antibody, human IgG1, kappa)
heavy: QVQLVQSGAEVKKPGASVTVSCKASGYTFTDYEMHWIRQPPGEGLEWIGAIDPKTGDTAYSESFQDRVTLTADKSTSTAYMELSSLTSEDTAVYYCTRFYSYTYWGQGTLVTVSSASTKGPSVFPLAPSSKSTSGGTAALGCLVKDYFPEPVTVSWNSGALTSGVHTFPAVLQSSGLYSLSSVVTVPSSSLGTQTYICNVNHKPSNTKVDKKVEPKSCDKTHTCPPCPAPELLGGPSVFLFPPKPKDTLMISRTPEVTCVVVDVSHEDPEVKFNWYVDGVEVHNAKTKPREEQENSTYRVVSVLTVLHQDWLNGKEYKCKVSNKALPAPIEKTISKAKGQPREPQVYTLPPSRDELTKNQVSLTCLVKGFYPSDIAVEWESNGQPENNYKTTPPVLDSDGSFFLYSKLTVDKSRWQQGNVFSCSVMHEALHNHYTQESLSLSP
light: DIVMTQSPLSLPVTPGEPASISCQASESLVHSNRNTYLHWYLQKPGQSPQLLIYKVSNRFSGVPDRFSGSGSGTDFTLKISRVEAEDVGVYYCSQNTHVPPTFGQGTKVEIERTVAAPSVFIFPPSDEQLKSGTASVVCLLNNFYPREAKVQWKVDNALQSGNSQESVTEQDSKDSTYSLSSTLTLSKADYEKHKVYACEVTHQGLSSPVTKSFNRGEC
notes: as for B12
B16: GpH7-B3 variant Y296_20W/GpL16-k0 (antibody, human IgG1, kappa)
heavy: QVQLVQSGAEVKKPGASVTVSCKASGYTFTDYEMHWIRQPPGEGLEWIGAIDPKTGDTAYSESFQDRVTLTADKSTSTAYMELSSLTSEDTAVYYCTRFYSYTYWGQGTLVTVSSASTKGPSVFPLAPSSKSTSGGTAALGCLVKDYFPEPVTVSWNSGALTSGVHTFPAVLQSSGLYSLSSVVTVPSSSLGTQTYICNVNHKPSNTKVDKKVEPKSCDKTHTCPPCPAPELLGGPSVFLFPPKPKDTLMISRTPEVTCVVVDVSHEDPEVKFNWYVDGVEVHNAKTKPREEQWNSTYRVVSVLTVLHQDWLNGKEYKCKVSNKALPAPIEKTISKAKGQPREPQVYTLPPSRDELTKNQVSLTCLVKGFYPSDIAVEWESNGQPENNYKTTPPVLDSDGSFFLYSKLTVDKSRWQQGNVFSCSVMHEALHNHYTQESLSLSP
light: DIVMTQSPLSLPVTPGEPASISCQASESLVHSNRNTYLHWYLQKPGQSPQLLIYKVSNRFSGVPDRFSGSGSGTDFTLKISRVEAEDVGVYYCSQNTHVPPTFGQGTKVEIERTVAAPSVFIFPPSDEQLKSGTASVVCLLNNFYPREAKVQWKVDNALQSGNSQESVTEQDSKDSTYSLSSTLTLSKADYEKHKVYACEVTHQGLSSPVTKSFNRGEC
notes: as for B12
B17: GpH7-B3 variant Y296_18N/GpL16-k0 (antibody, human IgG1, kappa)
heavy: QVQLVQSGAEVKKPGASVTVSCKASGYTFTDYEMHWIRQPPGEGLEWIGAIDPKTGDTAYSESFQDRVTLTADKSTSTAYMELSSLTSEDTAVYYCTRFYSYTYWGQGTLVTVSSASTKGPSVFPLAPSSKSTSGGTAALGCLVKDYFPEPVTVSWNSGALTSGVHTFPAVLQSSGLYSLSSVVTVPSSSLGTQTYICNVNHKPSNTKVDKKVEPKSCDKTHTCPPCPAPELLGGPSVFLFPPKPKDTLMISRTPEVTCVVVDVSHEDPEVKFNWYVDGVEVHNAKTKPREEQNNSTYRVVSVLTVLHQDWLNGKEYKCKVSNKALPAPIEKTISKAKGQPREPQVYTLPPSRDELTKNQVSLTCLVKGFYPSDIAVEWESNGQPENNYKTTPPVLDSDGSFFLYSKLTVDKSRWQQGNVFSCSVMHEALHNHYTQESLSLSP
light: DIVMTQSPLSLPVTPGEPASISCQASESLVHSNRNTYLHWYLQKPGQSPQLLIYKVSNRFSGVPDRFSGSGSGTDFTLKISRVEAEDVGVYYCSQNTHVPPTFGQGTKVEIERTVAAPSVFIFPPSDEQLKSGTASVVCLLNNFYPREAKVQWKVDNALQSGNSQESVTEQDSKDSTYSLSSTLTLSKADYEKHKVYACEVTHQGLSSPVTKSFNRGEC
notes: as for B12
B18: GpH7-B3 variant Y296_16H/GpL16-k0 (antibody, human IgG1, kappa)
heavy: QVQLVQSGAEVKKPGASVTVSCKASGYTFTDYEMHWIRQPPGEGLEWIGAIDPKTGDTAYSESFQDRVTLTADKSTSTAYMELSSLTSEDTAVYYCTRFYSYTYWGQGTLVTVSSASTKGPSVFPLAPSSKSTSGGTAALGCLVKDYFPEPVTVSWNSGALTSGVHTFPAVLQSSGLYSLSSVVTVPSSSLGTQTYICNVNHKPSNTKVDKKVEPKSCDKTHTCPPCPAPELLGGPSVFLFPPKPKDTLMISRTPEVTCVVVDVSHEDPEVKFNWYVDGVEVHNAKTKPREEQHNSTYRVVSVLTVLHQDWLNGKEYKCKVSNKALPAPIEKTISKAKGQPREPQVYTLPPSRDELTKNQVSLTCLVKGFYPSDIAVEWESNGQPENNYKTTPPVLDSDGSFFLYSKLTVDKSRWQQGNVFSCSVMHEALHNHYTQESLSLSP
light: DIVMTQSPLSLPVTPGEPASISCQASESLVHSNRNTYLHWYLQKPGQSPQLLIYKVSNRFSGVPDRFSGSGSGTDFTLKISRVEAEDVGVYYCSQNTHVPPTFGQGTKVEIERTVAAPSVFIFPPSDEQLKSGTASVVCLLNNFYPREAKVQWKVDNALQSGNSQESVTEQDSKDSTYSLSSTLTLSKADYEKHKVYACEVTHQGLSSPVTKSFNRGEC
notes: as for B12
B19: GpH7-B3 variant Y296_13S/GpL16-k0 (antibody, human IgG1, kappa)
heavy: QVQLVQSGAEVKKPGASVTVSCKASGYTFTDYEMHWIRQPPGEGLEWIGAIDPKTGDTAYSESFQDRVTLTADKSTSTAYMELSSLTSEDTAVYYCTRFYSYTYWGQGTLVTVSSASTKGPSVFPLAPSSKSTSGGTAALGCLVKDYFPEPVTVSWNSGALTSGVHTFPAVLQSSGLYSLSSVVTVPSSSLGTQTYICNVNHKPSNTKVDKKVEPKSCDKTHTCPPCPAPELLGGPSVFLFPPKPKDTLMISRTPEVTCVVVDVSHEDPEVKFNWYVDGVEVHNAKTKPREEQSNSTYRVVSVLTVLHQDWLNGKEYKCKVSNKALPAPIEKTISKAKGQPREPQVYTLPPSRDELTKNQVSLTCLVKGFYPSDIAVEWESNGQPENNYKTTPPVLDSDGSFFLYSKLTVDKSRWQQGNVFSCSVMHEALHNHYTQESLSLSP
light: DIVMTQSPLSLPVTPGEPASISCQASESLVHSNRNTYLHWYLQKPGQSPQLLIYKVSNRFSGVPDRFSGSGSGTDFTLKISRVEAEDVGVYYCSQNTHVPPTFGQGTKVEIERTVAAPSVFIFPPSDEQLKSGTASVVCLLNNFYPREAKVQWKVDNALQSGNSQESVTEQDSKDSTYSLSSTLTLSKADYEKHKVYACEVTHQGLSSPVTKSFNRGEC
notes: as for B12

T1 sequence (P08637 17-208): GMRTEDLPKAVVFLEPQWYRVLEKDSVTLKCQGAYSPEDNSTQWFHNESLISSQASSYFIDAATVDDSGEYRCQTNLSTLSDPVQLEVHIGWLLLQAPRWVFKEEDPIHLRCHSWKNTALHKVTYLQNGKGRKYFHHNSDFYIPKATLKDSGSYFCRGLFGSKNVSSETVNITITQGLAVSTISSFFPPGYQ

One experiment concerns the target T1, FcγRIIIa extracellular domain with C-terminal His tag (human, UniProt P08637 17-208).
T1 construct: extracellular domain; also called FcgRIIIa; 3a; not shown: His tag at the C terminus
Description: SPR relative binding; GpH7-A5/GpH7-B3/GpL16-k0 = 100. The method, then: (§1) Analysis of interaction between objective antibody and the FcγR was carried out using Biacore T100 (GE Healthcare). HBS-EP+ (GE Healthcare) was used as the running buffer, and the measurement temperature was set to 25° C. Chips produced by immobilizing the antigen peptide by the amine coupling method to a Series S Sencor Chip CM5 (GE Healthcare), or alternatively, chips produced by allowing preliminarily biotinylated antigen peptides to interact with and immobilize onto a Series S Sensor Chip SA (certified) (GE Healthcare) were used. Antibodies of interest were captured onto an antigen peptide-immobilized chip, and allowed to interact to each FcγR diluted with running buffer. To regenerate and repeatedly use the chip, the antibodies captured on the chip were washed off by reacting 10 mM glycine-HCl, pH 1.5.
(§2) The FcγR-binding activity of each antibody was assessed primarily using as an indicator the FcγR-binding activity and dissociation constant for FcγR.
For the molecule B1, the He/Con_3a is 155 % of control. As to B2, the He/Con_3a is 112 % of control. On to B3, for which the He/Con_3a is 121 % of control. Take B4: the He/Con_3a is 103 % of control. For the molecule B5, the He/Con_3a was 101 % of control. For B6, the He/Con_3a is 122 % of control.

On to B7, for which the He/Con_3a is 104 % of control. Regarding B8, the He/Con_3a was 101 % of control. The same measure, in the same setting: the same measure for B9: 103 % of control; for B10: 103 % of control. Take B11: the He/Con_3a is 105 % of control.

For the next experiment, the target named is T2, FcγRIIa R (human FcγRIIa, allotype R, Arg at position 131), extracellular domain with C-terminal His tag (human, UniProt P12318 34-217).
T2 construct: extracellular domain; expressed in FreeStyle293 cells; analyte in Biacore; also called 2aR; FcgRIIa R
T2 sequence (looked up): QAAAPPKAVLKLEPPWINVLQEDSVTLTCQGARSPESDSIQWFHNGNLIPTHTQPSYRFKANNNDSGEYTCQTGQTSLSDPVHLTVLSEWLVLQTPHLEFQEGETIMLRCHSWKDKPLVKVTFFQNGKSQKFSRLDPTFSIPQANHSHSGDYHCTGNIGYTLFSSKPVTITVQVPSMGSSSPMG
Description: SPR (Biacore), relative binding vs GpH7-B3/GpL16-k0. How it is done:
as §1, §2
As to B12, the Ho/Con_2aR is 90.3 relative, control = 100.

As to B13, the Ho/Con_2aR is 88.9 relative, control = 100. Regarding B14, the Ho/Con_2aR is 87.6 relative, control = 100. As to B15, the Ho/Con_2aR was 90.2 relative, control = 100. Turning to B16, the Ho/Con_2aR was 107 relative, control = 100. B17: the Ho/Con_2aR was 93.7 relative, control = 100. Take B18: the Ho/Con_2aR is 89.5 relative, control = 100.

Take B19: the Ho/Con_2aR is 88.1 relative, control = 100.
